Results: EP4470554A1, “USE OF KALLIKREIN I OR DERIVATIVE THEREOF IN TREATMENT OF VCI, PSCI OR CSVD” (Zonhon Biopharma Institute, Inc., priority 2022, dated 2023)

Target: T1, LMWK (Homo sapiens, UniProt P01042)
T1 sequence (P01042 19-427 isoform P01042-2 limits assumed): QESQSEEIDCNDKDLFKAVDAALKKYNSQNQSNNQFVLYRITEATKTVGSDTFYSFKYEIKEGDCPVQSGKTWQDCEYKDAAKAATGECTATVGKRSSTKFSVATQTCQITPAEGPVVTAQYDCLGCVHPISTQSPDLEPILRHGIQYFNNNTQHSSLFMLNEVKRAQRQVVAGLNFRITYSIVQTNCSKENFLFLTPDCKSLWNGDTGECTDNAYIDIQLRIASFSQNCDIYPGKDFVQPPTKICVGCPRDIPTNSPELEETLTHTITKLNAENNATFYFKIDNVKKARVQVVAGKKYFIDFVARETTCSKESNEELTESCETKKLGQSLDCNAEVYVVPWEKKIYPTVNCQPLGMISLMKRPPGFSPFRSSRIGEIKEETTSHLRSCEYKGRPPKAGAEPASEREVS
Assay: In vitro activity evaluation based on natural substrates (enzymatic reaction with LMWK, bradykinin quantified by UPLC)
Format: biochemical
Conditions: 37°C, 15min
Experimental: This example compared the enzymatic reaction to produce the effector molecule bradykinin at different ratios of substrate (LMWK) to enzyme (KLK1 or its PEG modified KLK1). The produced effector molecules were separated by reverse phase chromatography, the peak area of the product is calculated, and the curve of bradykinin production with different ratios of substrate to enzyme was drawn. Compare the amount of effector molecules produced by different test samples under the same reaction methods. Through this in vitro method simulating the in vivo effect, the in vivo effects of different tested samples were indirectly compared.
Kb was KLK1 extracted from porcine pancreas. PEG-Kb was PEG10K-modified Kb. PEG10K-hKLK1X1 and PEG-Kb can be prepared according to the conventional method of polyethylene glycol modified drugs.
The samples were mixed according to the following table (in PEG modified samples, the molar mass of the modified active substance was converted). The mixed samples were placed in a 37°C thermostat, incubated for 15min, accurately timed, and the reaction was terminated by adding 50% acetic acid solution according to the volume ratio of 10:1.
After the termination of the reaction, the sample was placed in a desktop centrifuge, centrifuged at 12000rpm for 5min, and the supernatant was taken. Detect with Waters ACQUITY UPLC H-Class, the mobile phase A was 0.1% TFA-H2O, the mobile phase B was 0.1% TFA-ACN, the detection wavelength was 214nm, the column temperature was 30°C, the sample loading volume was 10µl, the flow rate was 0.2ml/min, the running time was 35min, and the running gradient was as follows: Table 3
According to the UPLC chromatograph results of the enzymatic reaction mixture, the chromatographic peak with retention time of 13±0.5min(the peak position of bradykinin) was integrated and summed, and compared with the peak area of per unit mass bradykinin (1mg/ml, loading volume 10µl) to calculate the concentration of bradykinin generated by the enzymatic reaction. The amount of bradykinin produced was calculated according to the total reaction system in Table 2, and finally converted to the amount of bradykinin(µg/mg) produced per milligram of enzyme at each molar ratio.

PEG-Kb: PEG10K-modified Kb [reference compound]
Bradykinin production (Molar ratio of substrate to enzyme 1: 1): 11.28 µg/mg (enzyme)
Bradykinin production (Molar ratio of substrate to enzyme 5: 1): 44.63 µg/mg (enzyme)
Bradykinin production (Molar ratio of substrate to enzyme 10: 1): 79.99 µg/mg (enzyme)
Bradykinin production (Molar ratio of substrate to enzyme 15: 1): 103.85 µg/mg (enzyme)
Bradykinin production (Molar ratio of substrate to enzyme 20: 1): 119.89 µg/mg (enzyme)
